The target of this test is Anasazi bean lectin (lectin from seeds of Phaseolus vulgaris cv. Anasazi beans) (Phaseolus vulgaris). As to the kind of experiment: SEC; FPLC-gel filtration on Superdex 200 HR 10/30 calibrated with molecular-mass standards, 20 mM Tris-HCl buffer (pH 7.3); 60 kDa peak set against the 30 kDa band in SDS-PAGE. In general terms: In gel filtration, larger molecules generally elute earlier.

The term stoichiometry N denotes a count of units in the complex or per binding partner.

“Anasazi bean lectin (lectin from seeds of Phaseolus vulgaris cv. Anasazi beans) (natural protein)”: the stoichiometry N is 2.

The record behind these values is publication PMC2661133.
